Data on five sequences can be found in patent US20200354728.

Data set [1] relates to MmsR (LysR-type transcriptional regulator) (Pseudomonas denitrificans). Put plainly: cell_activity. The settings on record: GFP reporter; 25 mM 3-HP; 2.6 to 90.2 x10^3 AU/OD.
For data set [2] the test system is unchanged. Put plainly: EMSA. The settings on record: per monomeric MmsR. For orientation: Mobility shift assays separate free from complexed probe on a gel.
Data set [3] concerns HpdR (LysR-type transcriptional regulator, 304 aa) (Pseudomonas denitrificans). Put plainly: cell_activity. The settings on record: hpdH mRNA by 3-HP in wild type; 1.20 in hpdR deletion; 60.5 on complementation.

The sequence “CCTCGAATGTGCAAAAACGCAGACCATACTTGCACATCACCGCATTGAGTACATCAAAAATGCACTGTTAGGATCGATCCAGACAACAAAAAAGCCACAGGCTGGGAGAATCCCG (double strand) [BS_wt (PmmsA reporter)]” yielded an activity (fold induction) in data set [1] of 34.6.
The term Kd denotes the constant that tells how readily two partners part at equilibrium. The low end stands for tighter binding, the high end for weaker binding. As for “GTCAGCCTCAGCGCACCTCGAATGTGCAAAAACGCAGACCACTTGCACATCACCGCATTGAGTACATCAAAAATCACTGTTAGGATCGATCCAGACAACAAAAAAGCCACAGGCTGGGAGAATCCCG (double strand) [F12 (PmmsA, intact O1 and O2)]”, the Kd in data set [2] (no 3-HP, 0.4 nM DNA) came to 10.7 nM; in data set [2] (with 3-HP (25 mM), 0.4 nM DNA), 5.4 nM.
With “GTCAGCCTCAGCGCACCTCGAATGTGCAAAAACGCAGACCATACTTGCACATCACCGCATTGAGTACATCAATCCTTGCTTGTTAGGATCGCGCCCAGGCACAAAAAAGCCACAGGCTGGGAGAATCCCG (double strand) [F12M (O2 mutated)]”, the Kd in data set [2] (no 3-HP) was found to be 18.6 nM; in data set [2] (with 3-HP (25 mM)) it was 19.8 nM.
“GTCAGCCTCAGCGCACCTCGATCCTTGCTAAACGCAGACCATACCGCCCAGGCACCGCATTGAGTACATCAAAAATGCACTGTTAGGATCGATCCAGACAACAAAAAAGCCACAGGCTGGGAGAATCCCG (double strand) [F1M2 (O1 mutated)]”: the values for the Kd in data set [2] (no 3-HP) and in data set [2] (with 3-HP (25 mM)) were 79.8 nM and 316 nM, respectively.
With “TGTGGGAGCGGGCGTGCCCGCGAAGAGGCCAGCACAGACTTACCACTGTGCTAAAACGCACAGCGGCTGCGCGAAATCTCGTGTTTCCTCCACGAAATTACTCACTAAGATGGATCGGGACAAGAATAATAATCAGGCCCGAGGTTGCAC (double strand) [PhpdH (PC3) promoter]”, the activity (fold induction) in data set [3] was 43.
